In patent US20140005125A1 (Molecular Partners, published 2014):

B1: DARPin #28 (designed binder)
chain: MRGSHHHHHHGSDLGKKLLEAARAGQDDEVRILMANGADVNAKDEEGTTPLHYAAVWGHLEIVEVLLKAGADVNAQDIYGATPADLAALVGHEDIAEVLQKLN
B2: DARPin #30 (designed binder)
chain: MRGSHHHHHHGSDLGKKLLEAARAGQDDEVRELLKAGADVNAKDEEGTTPLHYAAVYGHLEIVEVLLKAGADVNAQDIYGATPADLAALVGHEDIAEVLQKLN
B3: DARPin #49 (designed binder)
chain: MRGSHHHHHHGSDLGKKLLEAARAGQDDEVRILMANGADVNAQDLNGQTPLHLAADIGHLEIVEVLLKHGADVNAQDYAGSTPLRLAAWAGHLEIVEVLLKNGADVNANDYFGYTPLHLAAYFGHLEIVDVLLKHGADVNAQDKFGKTAFDISIDNGNEDLAEILQKLN
B4: DARPin #50 (designed binder)
chain: MRGSHHHHHHGSDLGKKLLEAARAGQDDEVRELLKAGADVNAKDLNGQTPLHLAADIGHLEIVEVLLKAGADVNAKDYAGSTPLRLAAWAGHLEIVEVLLKAGADVNAKDYFGYTPLHLAAYFGHLEIVEVLLKAGADVNAQDKFGKTAFDISIDNGNEDLAEILQKLN

Columns and labels:
[1] = molecular target: T1, Recombinant human PDGF-BB (human, UniProt P01127 82-190); assay: cell-based or functional assay
T1 sequence (P01127 82-190 limits assumed): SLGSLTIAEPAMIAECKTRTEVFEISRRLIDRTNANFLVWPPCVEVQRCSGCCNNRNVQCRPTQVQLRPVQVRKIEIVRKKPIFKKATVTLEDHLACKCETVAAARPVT

[2] = molecular target: T1, Recombinant human PDGF-BB; assay: receptor competition ELISA (PDGFRbeta), distinct single experiment of FIG. 2
Experimental: The inhibition of the binding of PDGF-BB to PDGFRbeta by various concentrations of DARPins with specificity for PDGF-BB and the corresponding fitted inhibition curves are shown for a distinct single experiment. The IC₅₀ values were then calculated to be about 20 and 18 pM for the DARPins #50 (D1) and #28 (D2), respectively. OD, optical density at 450 nm; C, concentration of DARPins in pM. The X axis is shown in logarithmic scale. See below for the definitions of DARPin #50 and 28.
The potency of PEGylated anti-PDGF-BB DARPins to inhibit the binding of human PDGF-BB to its receptor PDGFRbeta was determined in a in a receptor competition ELISA (based on PDGF-BB Quantikine, R&D Systems). PDGFRbeta/Fc chimera has been precoated on a microplate. The DARPins were preincubated in assay diluent from the PDGF-BB Quantikine kit (R&D Systems) with a defined amount of PDGF-BB and incubated at room temperature for 2 hours with shaking at 750 rpm. These preincubation mixtures were then transferred into the precoated wells and any PDGF-BB that is not blocked by the DARPins was bound by the immobilized receptor. […] The color development was stopped and the intensity of the color was measured at 405 nm. […] IC₅₀ values were calculated from such titration curves obtained as described above using Graph Pad Prism software and standard procedures known to the person skilled in the art.

[3] = molecular target: T1, Recombinant human PDGF-BB; assay: SPR (ProteOn), biotinylated PDGF-BB on neutravidin chip, DARPin injected; Kd from on- and off-rates
Experimental: (§1) Biotinylated PDGF-BB molecules from human and mouse were immobilized in a flow cell through binding to coated […] and the interaction with various selected DARPins was analyzed.
(§2) SPR was measured using a ProteOn instrument (BioRad) and measurement was performed according standard procedures known to the person skilled in the art. The running buffer was PBS, pH 7.4, containing 0.005% Tween 20®. Neutravidin was covalently immobilized on a GLC chip (BioRad) to a level of about 8000 resonance units (RU). Immobilization of PDGF-BB on the neutravidin coated chip was then performed. The interaction of DARPin PDGF-BB was then measured by injecting 100 μl running buffer (PBS containing 0.005% Tween®) containing serial dilutions of DARPins of concentration of […] (on-rate measurement), followed by a running buffer flow for between 10 minutes and up to 3 hours at a constant flow rate of 30 μl/min (off-rate measurement). The signals (i.e. resonance unit (RU) values) of an uncoated reference cell and a reference injection (i.e. injection of running buffer only) were subtracted from the RU traces obtained after injection of […] (double-referencing). From the SRP traces obtained from the on-rate and off-rate measurements the on- and off-rate of the corresponding DARPin PDGF-BB interaction can be determined.
(§3) Dissociation constants (Kd) were calculated from the estimated on- and off-rates using standard procedures known to the person skilled in the art.

[4] = molecular target: T1, Recombinant human PDGF-BB; assay: receptor competition ELISA: DARPin preincubated with PDGF-BB, free PDGF-BB captured on coated PDGFRbeta/Fc; mean IC50
Experimental: The potency of PEGylated anti-PDGF-BB DARPins to inhibit the binding of human PDGF-BB to its receptor PDGFRbeta was determined in a in a receptor competition ELISA (based on PDGF-BB Quantikine, R&D Systems). PDGFRbeta/Fc chimera has been precoated on a microplate. The DARPins were preincubated in assay diluent from the PDGF-BB Quantikine kit (R&D Systems) with a defined amount of PDGF-BB and incubated at room temperature for 2 hours with shaking at 750 rpm. These preincubation mixtures were then transferred into the precoated wells and any PDGF-BB that is not blocked by the DARPins was bound by the immobilized receptor. After washing away any unbound substances, a horse radish peroxidase-linked polyclonal antibody specific for PDGF-BB was added to the wells. Following a wash to remove any unbound antibody-enzyme reagent, a substrate solution was added to the wells and color was developing in proportion to the amount of PDGF-BB bound. The color development was stopped and the intensity of the color was measured at […]. Example titration curves are given for a set of DARPins in FIG. 2. IC₅₀ values were calculated from such titration curves obtained as described above using Graph Pad Prism software and standard procedures known to the person skilled in the art.

[5] = molecular target: T2, Recombinant murine PDGF-BB (mouse, UniProt P31240 82-190, limits assumed); assay: SPR (ProteOn), biotinylated PDGF-BB on neutravidin chip, DARPin injected; Kd from on- and off-rates
T2 construct: For SPR chemically biotinylated on primary amines and captured on neutravidin; also called mouse PDGF-BB; PDGF-BB (mouse)
T2 sequence (P31240 82-190 limits assumed): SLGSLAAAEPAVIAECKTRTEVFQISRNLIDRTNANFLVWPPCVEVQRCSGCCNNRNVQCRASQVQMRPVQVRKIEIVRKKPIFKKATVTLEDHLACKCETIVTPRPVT
Experimental: as §1, §2, §3

| Binder | IC50 of inhibition of NIH-3T3 cell proliferation (WST-1) [1] [nM] | IC50 [2] [nM] | Kd [3] [nM] | IC50 [4] [nM] | Kd [5] [nM] |
| --- | --- | --- | --- | --- | --- |
| B1 | 1.6 | ~0.018 | 0.0171 | 0.016 |  |
| B2 | 3.2 |  | 0.11 | 0.49 |  |
| B3 | 1.9 |  | 0.0769 | 0.066 | 0.102 |
| B4 |  | ~0.02 | 0.115 | 0.032 |  |
